According to US7628975B2, “Compositions and methods for detecting and quantifying COX-2 activity and 2-arachidonylgycerol metabolites” (Vanderbilt University, priority 2000, dated 2009):

Experiments:
RAW264.7 cells = assay: Exogenous 2-AG metabolism to PGD2-G by RAW264.7 cells (LC/MS); assay type: cell-based, murine; conditions: inhibitor 3 μM, activated RAW264.7 cells, 2-AG 20 μM
Method: Briefly, macrophages (30-50% confluence) are activated with IFN-γ (10 units/mL) and LPS (1 μg/mL) in serum-free DMEM for 7 hr at 37° C. prior to treatment. Activated RAW264.7 cell media are aspirated and replaced with fresh serum-free DMEM or PBS. […] After 30 min, medium or PBS is removed and extracted two times with an equal volume of CHCl3:MeOH (2:1). The solvent is evaporated and the residue is dissolved in 1 mL H2O:MeCN (95:5) and applied to a water-charged C18 solid phase extraction column (Varian). Following a water wash, glyceryl prostaglandins are eluted with H2O:MeCN (3:7). The eluant is lyophilized, dissolved in H2O:MeCN (1:1), and subjected to LC/MS analysis. […] Activated RAW264.7 cell medium is aspirated and replaced with fresh serum-free DMEM. […] After 20 min, medium is removed and the cells are treated with 8.0 ng pentadeuterated glyceryl prostaglandin standard. Medium is collected and extracted two times with an equal volume of CHCl3:MeOH (2:1). The solvent is evaporated and the residue is redissolved in H2O:MeCN (1:1), filtered (0.22 μm nylon), and subjected to LC/MS analysis.

COX-2 = target: T1, COX-2 (Homo sapiens, UniProt P35354); assay: HPLC/UV quantification of products in base-treated COX-2/2-AG incubation mixtures; assay type: biochemical; conditions: COX-2 oxygenation of 2-AG, n=5
T1 sequence (P35354 18-604): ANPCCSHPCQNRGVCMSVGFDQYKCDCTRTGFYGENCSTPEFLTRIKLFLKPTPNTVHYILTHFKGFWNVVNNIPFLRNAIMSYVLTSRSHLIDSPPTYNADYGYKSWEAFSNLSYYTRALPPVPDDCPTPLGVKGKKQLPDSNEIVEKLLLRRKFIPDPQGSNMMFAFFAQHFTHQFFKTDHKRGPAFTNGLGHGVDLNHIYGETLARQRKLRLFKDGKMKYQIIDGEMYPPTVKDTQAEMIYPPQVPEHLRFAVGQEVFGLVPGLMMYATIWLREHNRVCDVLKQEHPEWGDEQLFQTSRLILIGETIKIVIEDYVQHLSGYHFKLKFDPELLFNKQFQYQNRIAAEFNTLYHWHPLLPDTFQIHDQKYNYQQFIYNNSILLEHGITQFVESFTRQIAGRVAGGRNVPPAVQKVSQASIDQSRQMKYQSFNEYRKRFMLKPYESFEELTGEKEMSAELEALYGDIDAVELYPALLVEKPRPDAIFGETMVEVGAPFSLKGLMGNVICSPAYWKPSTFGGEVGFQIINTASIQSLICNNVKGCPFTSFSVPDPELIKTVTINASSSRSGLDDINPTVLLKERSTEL
Method: Estimates of relative amounts of the individual PG-Gs can be made by reversed-phase HPLC with UV detection. […] Quantification of PGE2-G and HETE-Gs is accomplished by HPLC/UV analysis of base-treated COX-2/2-AG incubation mixtures using 5-HETE as an internal standard. PGE2-G is the major product of oxygenation (PGE2-G/HETE-G=4.0±0.1, n=5) and 11-HETE-G is more abundant than 15-HETE-G (11-HETE-G/15-HETE-G=3.4±0.1, n=5). HETE-G regiochemistry is confirmed by mass spectrometry of saponified, HPLC-purified HETE products.

[1] = buffer
Method: Then, a metabolite of the COX-2 selective substrate, such as PGH2-G, is measured.

[2] = substrate: CCCCC/C=C\C/C=C\C/C=C\C/C=C\CCCCOC(CO)CO; assay: Steady-state kinetics of COX-2 mediated oxygenation (O2 uptake), human enzyme; assay type: biochemical; conditions: other: hCOX-2, substrate oxygenation
Method: (§1) The ability of COX-1 and COX-2 to metabolize different substrates, such as 2-AG and arachidonic acid (AA) can be determined, for example, by measuring relative oxygen uptake. FIG. 9 is a representative oxygen uptake curve for 100 μM 2-AG or AA treated with 150 nM purified COX-2 or 150 nM ovine COX-1. The horizontal bar represents 20-seconds. The vertical bar represents 10 μM O2 uptake.

[3] = substrate: CCCCC/C=C\C/C=C\C/C=C\C/C=C\CCCC(=O)O; assay: as above; assay type: biochemical; conditions: other: hCOX-2, substrate oxygenation
Method: as §1

[4] = substrate: CCCCC/C=C\C/C=C\C/C=C\C/C=C\CCCCOC(CO)CO; assay: Steady-state kinetics of COX-2 mediated oxygenation (O2 uptake), murine enzyme; assay type: biochemical; conditions: other: mCOX-2, substrate oxygenation
Method: as §1

[5] = substrate: CCCCC/C=C\C/C=C\C/C=C\C/C=C\CCCC(=O)O; assay: as above; assay type: biochemical; conditions: other: mCOX-2, substrate oxygenation
Method: as §1

Question: With `COc1ccc2c(c1)c(CC(=O)NCCc1ccccc1)c(C)n2C(=O)c1ccc(Cl)cc1` [indomethacin phenethylamide, 2-[1-(4-chlorobenzoyl)-5-methoxy-2-methyl-1H-indol-3-yl]-N-phenethylacetamide] as the molecule, how does the “Effect on PGD2-G biosynthesis” value (RAW264.7 cells) read?
Answer: inhibited

Question: Which PGE2-G/HETE-G product ratio (COX-2) does the source give for `CCCCC[C@H](O)/C=C/[C@H]1[C@H](O)CC(=O)[C@@H]1C/C=C\CCCC(=O)OCC(O)CO` (some centres unmarked) [PGE2-G, prostaglandin E2-glycerol ester] here?
Answer: 4.0±0.1

Question: Which “Effect on PGD2-G biosynthesis” value (RAW264.7 cells) does the source give for `COc1ccc2c(c1)c(CC(=O)O)c(C)n2C(=O)c1ccc(Cl)cc1` [indomethacin] here?
Answer: inhibited

Question: Which 11-HETE-G/15-HETE-G product ratio (COX-2) does the source give for `CCCCCC=CC=CC(O)CC=CCC=CCCCC(=O)OC(CO)CO` (centres unmarked) [11-HETE-G, 11-hydroxy-eicosatetranoic glycerol ester] here?
Answer: 3.4±0.1

Question: With `CCCCC[C@H](O)/C=C/[C@@H]1[C@@H](C/C=C\CCCC(=O)OC(CO)CO)[C@@H]2C[C@H]1OO2` [PGH2-G, prostaglandin H2-glycerol ester] as the molecule, how does the “half-life in aqueous solution” value [1] read?
Answer: approximately 20 seconds

B1: hCOX-2 (Homo sapiens) (protein)
chain: ANPCCSHPCQNRGVCMSVGFDQYKCDCTRTGFYGENCSTPEFLTRIKLFLKPTPNTVHYILTHFKGFWNVVNNIPFLRNAIMSYVLTSRSHLIDSPPTYNADYGYKSWEAFSNLSYYTRALPPVPDDCPTPLGVKGKKQLPDSNEIVEKLLLRRKFIPDPQGSNMMFAFFAQHFTHQFFKTDHKRGPAFTNGLGHGVDLNHIYGETLARQRKLRLFKDGKMKYQIIDGEMYPPTVKDTQAEMIYPPQVPEHLRFAVGQEVFGLVPGLMMYATIWLREHNRVCDVLKQEHPEWGDEQLFQTSRLILIGETIKIVIEDYVQHLSGYHFKLKFDPELLFNKQFQYQNRIAAEFNTLYHWHPLLPDTFQIHDQKYNYQQFIYNNSILLEHGITQFVESFTRQIAGRVAGGRNVPPAVQKVSQASIDQSRQMKYQSFNEYRKRFMLKPYESFEELTGEKEMSAELEALYGDIDAVELYPALLVEKPRPDAIFGETMVEVGAPFSLKGLMGNVICSPAYWKPSTFGGEVGFQIINTASIQSLICNNVKGCPFTSFSVPDPELIKTVTINASSSRSGLDDINPTVLLKERSTEL
Question: Which results are given for B1?
Answer: Km [2]: 4.4 ± 0.9 µM; kcat [2]: 17.4 ± 1.1 s⁻¹; kcat/Km [2]: 4e+06 M⁻¹ s⁻¹; Km [3]: 6.1 ± 0.6 µM; kcat [3]: 14.7 ± 0.5 s⁻¹; kcat/Km [3]: 2.4e+06 M⁻¹ s⁻¹

B2: mCOX-2 (Mus musculus) (protein)
chain: ANPCCSNPCQNRGECMSTGFDQYKCDCTRTGFYGENCTTPEFLTRIKLLLKPTPNTVHYILTHFKGVWNIVNNIPFLRSLIMKYVLTSRSYLIDSPPTYNVHYGYKSWEAFSNLSYYTRALPPVADDCPTPMGVKGNKELPDSKEVLEKVLLRREFIPDPQGSNMMFAFFAQHFTHQFFKTDHKRGPGFTRGLGHGVDLNHIYGETLDRQHKLRLFKDGKLKYQVIGGEVYPPTVKDTQVEMIYPPHIPENLQFAVGQEVFGLVPGLMMYATIWLREHNRVCDILKQEHPEWGDEQLFQTSRLILIGETIKIVIEDYVQHLSGYHFKLKFDPELLFNQQFQYQNRIASEFNTLYHWHPLLPDTFNIEDQEYSFKQFLYNNSILLEHGLTQFVESFTRQIAGRVAGGRNVPIAVQAVAKASIDQSREMKYQSLNEYRKRFSLKPYTSFEELTGEKEMAAELKALYSDIDVMELYPALLVEKPRPDAIFGETMVELGAPFSLKGLMGNPICSPQYWKPSTFGGEVGFKIINTASIQSLICNNVKGCPFTSFNVQDPQPTKTATINASASHSRLDDINPTVLIKRRSTEL
Question: With B2 as the molecule, how does the Km [4] read?
Answer: 4.7 ± 0.8 µM

Question: What about the kcat [4] of the same molecule?
Answer: 11.1 ± 0.7 s⁻¹

Question: And the kcat/Km [4]?
Answer: 2.3e+06 M⁻¹ s⁻¹

Question: And the Km [5]?
Answer: 8.2 ± 1.6 µM

Question: What about the kcat [5] of the same molecule?
Answer: 20.5 ± 1.6 s⁻¹

Question: And the kcat/Km [5]?
Answer: 2.5e+06 M⁻¹ s⁻¹
